Target: T1, Death Receptor 5 (DR5) (human (endogenous in MCF-10A-Tr), UniProt O14763 56-440)
T1 construct: Death receptor 5 (DR5, TRAIL-R2/Killer), endogenous in MCF-10A-Tr cells (derived from the human breast epithelial line MCF-10A); precipitated with an anti-DR5 antibody; also called TRAIL-R2; Killer; source: endogenous, MCF-10A-Tr cells (on cells; RIPA lysate)
Test: co-IP; DISC analysis: MCF-10A-Tr cells untreated or treated with QC, TRAIL or TRAIL (10 ng/mL, 3 h) then QC (2.5 uM, 48 h); RIPA lysate, pre-cleared with sepharose-4B beads, immunoprecipitated with anti-DR5 antibody at 4°C overnight; western blot
Conditions: partners not purified

B1: Fas-Associated protein with Death Domain (FADD) (natural protein, human (endogenous in MCF-10A-Tr), UniProt Q13158 1-208, looked up)
chain: MDPFLVLLHSVSSSLSSSELTELKFLCLGRVGKRKLERVQSGLDLFSMLLEQNDLEPGHTELLRELLASLRRHDLLRRVDDFEAGAAAGAAPGEEDLCAAFNVICDNVGKDWRRLARQLKVSDTKIDSIEDRYPRNLTERVRESLRIWKNTEKENATVAHLVGALRSCQMNLVADLVQEVQQARDLQNRSGAMSPMSWNSDASTSEAS
notes: FADD, adaptor protein of the DISC, endogenous in MCF-10A-Tr cells; source: endogenous, MCF-10A-Tr lysate
  fold level in the DISC (anti-DR5 immunoprecipitate), TRAIL+QC treated against untreated cells: 8 fold

From article PMC5352116, “Quinacrine induces apoptosis in cancer cells by forming a functional bridge between TRAIL-DR5 complex and modulating the mitochondrial intrinsic cascade” (Oncotarget, 2016)
